From patent publication US20200009190A1

Biological target: CD200 expressed on FBL leukemia cells transduced with CD200 (CD200+ FBL) (UniProt O54901)
Assay: cell-based or functional assay

Sequence of CD200 expressed on FBL leukemia cells transduced with CD200 (CD200+ FBL) (O54901 31-278 limits assumed): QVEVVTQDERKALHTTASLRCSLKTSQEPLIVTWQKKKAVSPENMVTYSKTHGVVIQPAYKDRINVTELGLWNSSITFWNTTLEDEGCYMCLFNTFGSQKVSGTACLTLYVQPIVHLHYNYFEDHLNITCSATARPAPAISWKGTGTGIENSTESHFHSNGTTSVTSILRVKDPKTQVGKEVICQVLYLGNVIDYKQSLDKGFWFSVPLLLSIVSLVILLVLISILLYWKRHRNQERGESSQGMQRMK

CD200R-9aas-CD28Cys (murine construct V) (from UniProt Q9ES57 26-229; P31041 142-218)
accumulation of transduced T cells over multiple cycles of stimulation with irradiated CD200+ FBL: 3 fold | fold enrichment, stimulation 3/stimulation 1: 3 fold | lysis of CD200+ FBL (CFSE-based cytotoxicity assay): 40% | percentage of cytokine non-producing cells (flow cytometry): 27% | percentage of polyfunctional cells producing all 3 cytokines (IFNγ, IL-2, TNFα): 22%
